In patent US20240279309A1:
Several values for one entry are separate records, joined by “and”; a condition that tells them apart may be missing. Equal values may be shown once.

Biological target: CD40 receptor on cells (HEK293 reporter cells expressing CD40; primary human B cells) (human) (UniProt P25942)
Assay: cell-based or functional assay

Sequence of anti-CD40 monoclonal antibody corresponding to sequence 21.4.1 of U.S. Pat. No. 7,338,660 B2 (VH): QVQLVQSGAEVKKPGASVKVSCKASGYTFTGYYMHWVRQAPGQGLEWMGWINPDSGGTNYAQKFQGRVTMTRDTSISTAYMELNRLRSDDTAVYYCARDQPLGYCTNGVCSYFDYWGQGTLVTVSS
Sequence of anti-CD40 monoclonal antibody corresponding to sequence 21.4.1 of U.S. Pat. No. 7,338,660 B2 (VL): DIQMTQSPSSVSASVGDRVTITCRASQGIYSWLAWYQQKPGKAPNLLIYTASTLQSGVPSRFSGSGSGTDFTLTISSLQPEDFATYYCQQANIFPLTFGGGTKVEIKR
Sequence of CD40 receptor on cells (HEK293 reporter cells expressing CD40; primary human B cells) (human) (P25942 21-277): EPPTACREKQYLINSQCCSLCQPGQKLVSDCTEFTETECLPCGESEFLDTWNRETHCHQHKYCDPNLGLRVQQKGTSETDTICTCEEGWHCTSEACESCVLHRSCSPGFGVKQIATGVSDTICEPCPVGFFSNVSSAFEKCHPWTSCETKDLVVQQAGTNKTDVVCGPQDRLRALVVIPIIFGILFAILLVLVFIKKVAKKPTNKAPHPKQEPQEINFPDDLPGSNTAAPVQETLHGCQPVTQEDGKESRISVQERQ

anti-CD40 monoclonal antibody corresponding to sequence 21.4.1 of U.S. Pat. No. 7,338,660 B2
EC50 [nM], % CD86, human B cells with FAP-CHO, w HSA: 0.88 nM and 0.3 nM | EC50 [nM], % CD86, human B cells with FAP-CHO, w/o HSA: 1.9 nM and 0.51 nM | EC50 [nM], MFI CD86, human B cells with FAP-CHO, w HSA: 0.51 nM and 2.05 nM | EC50 [nM], MFI CD86, human B cells with FAP-CHO, w/o HSA: 1.13 nM and 4.73 nM | Efficacy [MFI at highest dose], MFI CD86, human B cells with FAP-CHO, w HSA: 1530 MFI and 1870 MFI | Efficacy [MFI at highest dose], MFI CD86, human B cells with FAP-CHO, w/o HSA: 1340 MFI and 2060 MFI | Efficacy [MFI at highest dose], MFI CD86, human B cells with WT-CHO (no FAP), w HSA: 1470 MFI and 1900 MFI | Efficacy [MFI at highest dose], MFI CD86, human B cells with WT-CHO (no FAP), w/o HSA: 1390 MFI and 2050 MFI
